Results as given in article PMC4183563, “Protospacer Adjacent Motif (PAM)-Distal Sequences Engage CRISPR Cas9 DNA Target Cleavage”.
Changes are numbered by the printed parent chain.

How the values were obtained:
[1] = biological target: T1, Cas9 (wild type) (Streptococcus pyogenes, UniProt Q99ZW2 1-1368); experiment: EMSA; 20 nM crRNA cr20, 20 nM tracrRNA; EMSA: 1 nM 32P-dsDNA, 10 nM Cas9 (or titrated), 20 nM tracrRNA, 20 nM crRNA, 2.5 ug/ml heparin, 5% native PAGE; buffer, pH and temperature as in cited ref 11 (not given); settings: protein: recombinant; label: 32P on DNA; duplex DNA; crRNA:tracrRNA guide
T1 sequence (Q99ZW2 whole entry): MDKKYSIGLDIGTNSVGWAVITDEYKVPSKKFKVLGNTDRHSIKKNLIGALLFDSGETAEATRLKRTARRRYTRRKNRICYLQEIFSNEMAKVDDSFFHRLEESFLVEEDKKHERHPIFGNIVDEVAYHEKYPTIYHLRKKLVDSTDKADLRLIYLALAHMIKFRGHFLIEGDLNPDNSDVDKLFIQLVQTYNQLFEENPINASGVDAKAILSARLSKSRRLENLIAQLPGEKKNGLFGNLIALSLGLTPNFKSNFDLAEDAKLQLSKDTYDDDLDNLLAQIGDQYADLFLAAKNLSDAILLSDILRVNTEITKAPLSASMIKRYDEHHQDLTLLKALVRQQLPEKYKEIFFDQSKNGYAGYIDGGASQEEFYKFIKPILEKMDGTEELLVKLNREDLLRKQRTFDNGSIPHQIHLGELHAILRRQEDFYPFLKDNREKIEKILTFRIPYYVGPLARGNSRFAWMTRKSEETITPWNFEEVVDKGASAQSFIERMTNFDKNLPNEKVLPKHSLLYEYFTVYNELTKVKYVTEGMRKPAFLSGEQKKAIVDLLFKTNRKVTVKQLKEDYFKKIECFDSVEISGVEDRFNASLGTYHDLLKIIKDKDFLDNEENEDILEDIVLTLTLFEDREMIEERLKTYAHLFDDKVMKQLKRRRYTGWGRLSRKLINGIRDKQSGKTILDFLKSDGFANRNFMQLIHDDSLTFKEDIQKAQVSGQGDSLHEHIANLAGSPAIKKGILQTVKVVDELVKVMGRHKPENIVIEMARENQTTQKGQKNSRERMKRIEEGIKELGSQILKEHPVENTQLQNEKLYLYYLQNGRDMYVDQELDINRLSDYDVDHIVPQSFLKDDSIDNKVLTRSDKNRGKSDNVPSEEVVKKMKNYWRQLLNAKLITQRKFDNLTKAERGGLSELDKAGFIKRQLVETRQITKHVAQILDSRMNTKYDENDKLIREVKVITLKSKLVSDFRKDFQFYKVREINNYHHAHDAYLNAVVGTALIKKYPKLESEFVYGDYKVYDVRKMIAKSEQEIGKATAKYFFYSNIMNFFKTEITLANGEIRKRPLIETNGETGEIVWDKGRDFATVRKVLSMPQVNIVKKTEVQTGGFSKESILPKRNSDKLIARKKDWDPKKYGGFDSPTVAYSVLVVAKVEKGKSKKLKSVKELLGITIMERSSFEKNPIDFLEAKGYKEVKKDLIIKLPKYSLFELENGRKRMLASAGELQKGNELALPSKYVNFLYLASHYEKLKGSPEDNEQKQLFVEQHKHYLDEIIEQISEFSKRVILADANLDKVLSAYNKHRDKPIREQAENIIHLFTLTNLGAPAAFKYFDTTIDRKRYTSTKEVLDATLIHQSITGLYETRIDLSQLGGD

[2] = biological target: T1, Cas9 (wild type); experiment: EMSA; cr20 + tracrRNA; EMSA: 1 nM 32P-dsDNA, 10 nM Cas9 (or titrated), 20 nM tracrRNA, 20 nM crRNA, 2.5 ug/ml heparin, 5% native PAGE; buffer, pH and temperature as in cited ref 11 (not given); settings: protein: recombinant; label: 32P on DNA; duplex DNA; crRNA:tracrRNA guide

B1: p53 [Exon 7] 55 bp duplex + cr20 + tracrRNA (mixed)
DNA 1: TCCACTACAAGTACATGTGTAATAGCTCCTGCATGGGGGGCATGAACCGCCGACC
DNA 2: GGTCGGCGGTTCATGCCCCCCATGCAGGAGCTATTACACATGTACTTGTAGTGGA
Kd [1]: 1.5 ± 0.1 nM

B2: OT#7 probe + cr20 + tracrRNA (mixed)
DNA 1: B1 DNA 1 with T20G, T23C
DNA 2: B1 DNA 2 with A33G, A36C
binding result [2]: binds
